These results are taken from article doi:10.1101/2025.08.31.673358.

The target in this test is Fragile X messenger ribonucleoprotein (FMRP) (human (endogenous in iPSC-derived NPCs)) (UniProt Q06787). Put plainly: co-IP.

“histone H3 di-methylated at lysine 79 (H3K79me2) (from UniProt P68431 1-136) (natural protein)” showed a percent of input co-immunoprecipitated of 20%.
